Test results from PMC2953525, “Subtle Alterations in PCNA-Partner Interactions Severely Impair DNA Replication and Repair” (PLoS Biology, 2010).
Substitutions are numbered along the chain they refer to.

B1: pol30-Msh6E6: PCNA mutant evolved for Msh6, IDCL sequence DYDKDLLKIIEL (protein)
chain: MLEAKFEEASLFKRIIDGFKDCVQLVNFQCKEDGIIAQAVDDSRVLLVSLEIGVEAFQEYRCDHPVTLGMDLTSLSKILRCGNNTDTLTLIADNTPDSIILLFEDTKKDRIAEYSLKLMDYDKDLLKIIELQYDSTLSLPSSEFSKIVRDLSQLSDSINIMITKETIKFVADGDIGSGSVIIKPFVDMEHPETSIKLEMDQPVDLTFGAKYLLDIIKGSSLSDRVGIRLSSEAPALFQFDLKSGFLQFFLAPKFNDEE
modifications: left off: Gal4 activation domain, end not stated, kept
B2: pol30-79: previously studied PCNA mutant with decreased partner binding, IDCL sequence DIDADFAKAEEL (protein)
chain: B1 chain with Y121I, K123A, L125F, L126A, I128A, I129E
modifications: left off: Gal4 activation domain, end not stated, kept
B3: pol30-Msh6E2: PCNA mutant evolved for Msh6, IDCL sequence DYDRDMLKISEL (protein)
chain: B1 chain with K123R, L125M, I129S
modifications: left off: Gal4 activation domain, end not stated, kept
B4: pol30-Rad30E2: PCNA mutant evolved for Rad30, IDCL sequence DDDWDFLKILEL (protein)
chain: B1 chain with Y121D, K123W, L125F, I129L
modifications: left off: Gal4 activation domain, end not stated, kept
B5: pol30-Pol32E9 (protein)
chain: B1 chain with Y121N, K123V, L125S
modifications: left off: Gal4 activation domain, end not stated, kept
B6: pol30-Rad30E9: PCNA mutant evolved for Rad30, IDCL sequence DNDWDFLKIDEL (protein)
chain: B1 chain with Y121N, K123W, L125F, I129D
modifications: left off: Gal4 activation domain, end not stated, kept

How the values were obtained:
[1] = tested on: Msh6; assay: Yeast two hybrid (Y2H) analysis of PCNA-partner interaction; format: binding; details: for Binding of PCNA Mutants to Target Partners: Msh6 (Y2H): YRG2 strain, growth on selective agar plates lacking histidine, growth similar to WT PCNA denoted as 1; for Binding of PCNA Mutants to Target Partners: Msh6, fold increase or decrease (quantitative Y2H): footnote c: generation time in liquid selective media lacking histidine relative to cells expressing WT PCNA, average of at least 3 independent experiments
Experimental: (§1) For the Y2H assay, we used the YRG2 host strain, shown to be highly efficient in coupling the strength of protein-protein interactions with growth on media lacking histidine. Selected PCNA mutants were characterized for their ability to bind each of 12 main PCNA partners to obtain specificity profiles (Table 1, Table S1, and Figures S4–S5). […] However, in some cases a strong trade-off between the bindings of different partners was observed.
(§2) Y2H analysis was performed using the Yeast Two Hybrid Phagemid vector kit (Stratagene), following the manufacturer's instructions. The pAD-PCNA-WT/mutant plasmids were used as bait while plasmids encoding 12 different PCNA partners (Table 1 and Table S1) were used as prey. The YRG2 host strain (Stratagene) was cotransformed with pAD-PCNA WT/mutant and pBD-partner plasmids in all possible combinations using the LiAC method. Single transformants were grown in liquid SC-Leu-Trp to O.D600 10, washed twice with DDW, and diluted to an initial OD600 of 0.3. A series of 10-fold serial dilutions was then spotted onto selective SC-Leu-Trp-His plates and incubated at 30°C for 3 d. For quantitative Y2H, the generation time of the indicated mutants and their respective partners were calculated from their growth curves in liquid SC-Leu-Trp-His media. Cells were grown overnight in SC-Leu-Trp, washed twice with ddH2O, and diluted by a factor of 1∶50 into 10 ml of pre-warmed SC-Leu-Trp-His. O.D600 measurements of the cultures were taken at the indicated time; the generation time (τ) was calculated from the growth curves according to the equation ODt = OD0×2^t/τ. The generation time calculated for each culture is an average of at least 3 independent experiments.

[2] = tested on: Pol32; assay: as above; format: binding; details: for Binding of PCNA Mutants to Target Partners: Pol32 (Y2H): YRG2 strain, growth on selective agar plates lacking histidine, growth similar to WT PCNA denoted as 1; for Binding of PCNA Mutants to Target Partners: Pol32, fold increase or decrease (quantitative Y2H): footnote c: generation time in liquid selective media lacking histidine relative to cells expressing WT PCNA, average of at least 3 independent experiments
Experimental: as §1, §2

[3] = tested on: Rad27; assay: as above; format: binding; details: for Binding of PCNA Mutants to Target Partners: Rad27, fold increase or decrease (quantitative Y2H): footnote c: generation time in liquid selective media lacking histidine relative to cells expressing WT PCNA, average of at least 3 independent experiments
Experimental: as §1, §2

[4] = tested on: Rad30; assay: as above; format: binding; details: for Binding of PCNA Mutants to Target Partners: Rad30 (Y2H): YRG2 strain, growth on selective agar plates lacking histidine, growth similar to WT PCNA denoted as 1; for Binding of PCNA Mutants to Target Partners: Rad30, fold increase or decrease (quantitative Y2H): footnote c: generation time in liquid selective media lacking histidine relative to cells expressing WT PCNA, average of at least 3 independent experiments
Experimental: as §1, §2

[5] = tested on: Ung1; assay: as above; format: binding; details: for Binding of PCNA Mutants to Target Partners: Ung1 (Y2H): YRG2 strain, growth on selective agar plates lacking histidine, growth similar to WT PCNA denoted as 1
Experimental: as §1, §2

[6] = tested on: CAN1 gene; assay: Spontaneous mutation rate, CAN1 reporter assay, fluctuation analysis; format: cell-based, yeast; details: for Spontaneous Mutation Rate Can^R (Fold Increase): Table 1, compared to the WT POL30 strain
Description: It was previously shown that PCNA contains another site of regulation (i.e. K164) that is modulated by ubiquitination or SUMOylation (Figure 1B) and that is crucial for the recruitment of TLS polymerases,[37]. To test whether the K164 regulatory site is active in the PCNA mutant strains, we examined the spontaneous mutation rate in these strains (Table 1). Increase in spontaneous mutation rate can indicate the recruitment of TLS polymerases to PCNA through K164 ubiquitination,[37]. Alternatively, these mutants can indirectly affect the spontaneous mutation rate by reducing DNA replication processivity and causing replication fork stalling, thereby leading to TLS recruitment. These mutants can also indirectly alter Pol-δ or Pol-ε proofreading leading to TLS recruitment. We measured the spontaneous mutation rate using the CAN1 reporter assay by monitoring the ability of the PCNA mutant strains to grow in the presence of canavanine, a toxic analogue of arginine. […] To examine whether Polζ, the major TLS polymerase,[37], is recruited in vivo to PCNA mutants showing increased affinity for Rad27 and Pol32 (pol30-Rad27E6 and pol30-Pol32E5, Table 1) upon K164 ubiquitination, we measured the spontaneous mutation rates of these mutant strains on the background of either mutated rev3 encoding the catalytic subunit of Polζ or mutated rad18 encoding the K164 ubiquitin ligase or K164R mutation (Figure 7, Table 2).
Novel haploids containing PCNA mutants were generated using the plasmid shuffling method. Briefly, a pol30::KanMX magic marker heterozygote diploid strain BY4743 (Open Biosystem) was transformed with plasmid pRS316-POL30. Following dissection of the diploid, a haploid containing the CAN+ gene and plasmid pRS316-POL30 as a sole source of PCNA was generated. This host strain was transformed with selected pRS315-pol30 mutants, plated on SC-Ura-Leu plates, followed by replica plating to SC-Leu+5FOA plates. Haploids, containing PCNA mutants as a sole source, were further verified by plating on either SC-Leu or SC-Ura plates. For testing selected PCNA mutants, a haploid containing rad27::HYG, rad30::HYG, pol32::HYG, msh6::HYG, or ung1::HYG were generated using plasmid pAG32 by conventional genetic approaches. Growth of the PCNA mutant strains in the presence of 120 mM HU (Toronto Research Chemicals) or 0.02% MMS (Sigma) was performed as described. To examine the effects of partner overexpression on pol30 mutant strains, these strains were transformed with various plasmids containing GST-tagged PCNA partner encoding genes under the control of a GAL1/10 inducible promoter, as previously described. Overnight cultures were plated in serial dilutions on SC-Ura containing either glucose or galactose with or without DNA-damaging agents, as described above.
The mutation rates for the different pol30 mutant strains described in this study were determined by fluctuation test analysis using the Lea and Coulson method,[48]. The different strains were plated as single colonies on SC-Leu plates and allowed to grow for 3 d at 30°C. At least 25 single colonies from each strain were excised from the plate and resuspended in 1 ml of sterile water to an O.D600 of 0.7. Appropriate dilutions of the cells were then plated on SC-Leu and SC-Leu-Arg+canavanine ([…]) to obtain the number of viable cells (Nt) and the number of canavanine-resistant cells (r), respectively. Using the Lea and Coulson method, the number of mutations (m) per colony was derived from the number of canavanine resistant-colonies (r) across parallel cultures, using the following equation: […]. The m values were then used to calculate the mutation rate, M, using the following equation: M = m/Nt, where Nt is the average number of viable cells per plating. The different M values were sorted to obtain the median. […]

Molecule	Binding of PCNA Mutants to Target Partners: Msh6 (Y2H) [1]	Binding of PCNA Mutants to Target Partners: Pol32 (Y2H) [2]	Binding of PCNA Mutants to Target Partners: Rad27 (Y2H) ([3]; YRG2 strain, growth on selective agar plates lacking histidine, growth similar to WT PCNA denoted as 1)	Binding of PCNA Mutants to Target Partners: Rad30 (Y2H) [4]	Binding of PCNA Mutants to Target Partners: Ung1 (Y2H) [5]	Fold Increase Relative to WT (mutation rate, CAN1 locus) ([6]; Table 2) [fold]	Mutation Rate (CAN1 locus) ([6]; Table 2, median, brackets = 95% confidence interval, at least 25 independent determinations)	Binding of PCNA Mutants to Target Partners: Msh6, fold increase or decrease (quantitative Y2H) [1]	Spontaneous Mutation Rate Can^R (Fold Increase) [6] [fold]	Binding of PCNA Mutants to Target Partners: Pol32, fold increase or decrease (quantitative Y2H) [2]	Binding of PCNA Mutants to Target Partners: Rad27, fold increase or decrease (quantitative Y2H) [3]	Binding of PCNA Mutants to Target Partners: Rad30, fold increase or decrease (quantitative Y2H) [4]	Binding of PCNA Mutants to Target Partners: Ung1, fold increase or decrease (quantitative Y2H) ([5]; footnote c: generation time in liquid selective media lacking histidine relative to cells expressing WT PCNA, average of at least 3 independent experiments)	effect of msh6 deletion on spontaneous mutation rate ([6]; Figure 6D)
POL30: wild-type yeast PCNA (POL30), IDCL sequence DIDADFLKIEEL	1	1	1	1	1	1	1.5×10^−7 [1.5, 2.2]							
B1		1		1	1			1.4 fold	4.1					
B2								0.4 ^c fold	2.2	0.3 ^c fold	0.5 ^c fold	0.4 ^c fold	0.3 ^c fold	
B3		1		1	1			1.4 ^c fold	7.3					Suppression
B4	1				1				10	0.4 ^c fold	0.4 ^c fold	1.4 ^c fold		
B5	1			1	1				4	1.3 fold				
B6	1	1			1				15.3		0.5 ^c fold	1.6 fold		
